Results as given in paper PMC4050729.

What was measured:
[1] = target: ribosome nascent chain complex bearing the 3A7L signal sequence, nascent chain of 85 residues, Cm-labeled (UniProt P0ADZ0); test: other fluorescence titration
[2] = target: ribosome nascent chain complex bearing the 3A7L signal sequence, nascent chain of 85 residues, Cm-labeled (UniProt P0ADZ0); test: FRET or BRET

Substance	EC50 [1] [nM]	fold weaker binding than wt SRP in the closed complex [2] [fold]	fold weaker binding than wt SRP in the early complex [2] [fold]
SecYEG translocon, cysteineless, solubilized in 0.02% DDM (from UniProt P0AGA2;P0AG96;P0AG99) (complex)	39		
SRP-FtsY complex formed with mutant SRP19/21E (early complex with GDP, closed complex with GppNHp) (from UniProt P0AGD7;P10121)		6	> 300
